Laboratory results published in the supplement of paper PMC10567573.

B1: ZNF649 (parent)
chain: MTKAQESLTLEDVAVDFTWEEWQF
B2: TOR1AIP2 (parent)
chain: AGQEGEDTLRRRLLAPEAGSHPQQ

Variants of: B1
Test: protein stability index of a GFP-peptide fusion (GPS, HEK-293T) (PSI 1-6); higher = more stable
Settings: c terminus: a fixed tail appended
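Note: lentivirally expressed fusions sorted by FACS into six bins by GFP to DsRed ratio, PSI derived from sequencing read proportions per bin multiplied by bin number.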

Protein stability index of substitutions, site by site:
T9: D 3.71 | A 3.37 | H 3.81 | E 3.94 | V 3.16 | Y 2.41 | C 3.52 | S 3.43 | R 3.59 | I 2.71 | M 3.16
D16: Y 2.64 | R 2.22 | I 2.52 | C 2.89 | P 4.02 | S 3.12 | E 1.85 | Q 2.92 | G 3.13 | N 3.77 | L 2.73
F17: I 4.25 | K 4.72 | P 4.43 | R 3.61 | Y 3.76 | L 4.03 | D 4.75 | S 4.52 | M 4.17 | T 3.95 | N 3.64 | G 3.81 | V 4.05
W19: M 3.77 | V 3.68 | Q 4.43 | I 2.56 | G 4.61 | H 3.6 | F 3.19 | R 4.07 | C 3.85 | T 4.07 | D 4.65
E11: L 1.56 | S 2.83 | G 2.98 | Y 1.28 | P 2.69 | C 2.12 | R 2.39 | Q 3.9
Q5: W 1.49 | R 2.46 | V 3.37 | L 2.97 | G 2.84 | E 3.35 | S 3.96 | C 2.78 | H 3.2 | I 3.02 | Y 2.32 | D 3.4 | N 3.33
W22: K 4.76 | P 4.4 | E 4.52 | V 3.96 | I 3.54 | G 4.33 | S 4.78 | A 4.17 | F 3.41 | L 3.62 | Y 3.44
E21: Y 1.95 | W 2.72 | T 2.21 | M 2.25 | V 2.81 | K 1.95 | C 1.58 | F 3.42 | D 3.36 | H 1.53 | Q 3.08 | S 2.11
E20: I 1.87 | K 2.51 | G 2.17 | R 2.06 | T 2.5 | L 1.3 | N 2.41 | W 2.28 | C 2.48 | F 1.44 | S 2.65
M1: I 2.83 | S 3.91 | K 3.29 | Q 3.89 | Y 2.96 | H 3.72 | C 2.82 | E 4.48 | D 3.95 | P 2.81
V15: A 3.92 | I 2.53 | K 3.95 | Q 4.44 | C 3.71 | H 4.33 | L 2.56 | R 4.16 | P 4.07 | Y 3.91 | E 3.94 | T 4.1 | F 2.48
E6: Y 1.53 | F 1.89 | M 1.92 | C 2.52 | P 2.78 | T 2.71 | Q 2.94 | A 1.87 | S 2.33
T2: H 2.88 | I 2.75 | L 3.97 | W 2.36 | P 3.66 | G 3.25 | C 2.57 | D 3.5 | Y 2.33
Q23: R 3.56 | A 4.2 | C 2.26 | G 2.87 | T 3.1 | K 3.28 | F 2.66
A4: S 3.45 | N 3.04 | Q 3.18 | C 2.4 | G 2.94 | D 3.48 | K 3.15 | R 2.97 | I 2.89 | Y 2.56 | H 3.48 | W 2.15
V13: F 2.54 | T 4.11 | G 3.64 | Y 3.17 | K 4.16 | S 4.69 | P 4.15 | D 4.11 | C 3.37 | H 3.88
L8: I 3.05 | E 4.39 | T 3.93 | N 4.42 | K 4.31 | D 4.41 | R 3.79 | Y 2.7 | G 4.11 | P 3.58 | H 4.05 | M 3.62 | W 2.23 | S 4.47 | F 2.5 | V 3.59
A14: L 1.74 | T 2.92 | D 4.04 | Y 1.65 | N 2.92 | Q 3.61 | P 4.12 | C 2.4 | I 1.88
K3: I 2.74 | H 3.7 | L 2.84 | N 3.65 | G 3.36 | C 2.23 | W 2.53 | T 3.33 | S 3.85
T18: C 2.64 | G 3.37 | F 1.79 | V 1.95 | I 2.41 | H 2.63 | L 2.26 | Y 1.36 | D 4.1 | M 2.39
D12: H 2.68 | F 3.77 | A 1.72 | G 2.55 | M 2.14 | R 2.85 | N 2.23 | L 3.49
S7: T 3.67 | A 2.82 | G 3.8 | Q 3.68 | N 3.39 | C 2.9 | V 2.5 | Y 2.54 | I 3.1 | D 3.75 | F 3.2 | H 2.6 | M 2.69 | W 1.72 | P 3.14 | K 3.01
F24: P 3.9 | I 2.51 | V 3.77 | R 4.34 | T 3.94 | H 4.01 | G 4.45 | A 4.61 | D 4.57 | E 5.32 | N 4.35 | C 3.99
L10: C 4.05 | P 4.11 | N 4.29 | K 4.34 | F 3.61 | V 3.01 | E 4.38

Variants of: B2
Test: as above
Settings: c terminus: a fixed tail appended

Protein stability index of substitutions, site by site:
P22: R 2.04 | E 2.66 | Y 1.52 | L 2.14 | T 1.87 | K 2.44 | I 2.56 | S 1.81 | M 2.67 | D 2.6 | C 2.43 | V 2.4 | W 1.94 | F 2.31 | H 1.65 | N 3.24 | A 2.58 | Q 2.34 | G 2.44
H21: Y 1.85 | S 2.76 | L 2.27 | R 2.14 | W 2.6 | G 2.47 | T 2.26 | D 3.73 | P 2.82 | M 1.88 | Q 2.7 | V 2.1 | N 2.69 | C 2.69 | A 2.53 | I 2.96 | E 1.73 | K 2.58 | F 2.02
Q24: H 1.7 | S 2.4 | E 2.52 | F 2.37 | C 1.85 | W 2.17 | T 2.22 | I 2.16 | P 2.41 | N 2.25 | L 1.79 | V 2.58 | Y 2.46 | M 2.81 | D 2.38 | R 2.05
S20: T 2.1 | W 2.08 | Y 2.18 | V 1.73
Q23: P 3.1 | L 2.45 | M 2.24 | V 2.69 | A 2.36 | Y 2.01 | K 2.74 | N 2.17 | T 1.61 | D 2.75 | S 1.85 | H 2.01 | I 1.73 | R 2.54 | C 2.54 | G 1.78 | E 2.18 | W 1.81
